Laboratory results published in patent publication US20130315910A1 (Xencor, published 2013).

target: T1, human FcγRIIb receptor protein (R&D Systems) (human, UniProt P31994 46-217); test: SPR
T1 construct: Bought protein injected over captured antibody in Biacore; also called CD32b
T1 sequence (looked up): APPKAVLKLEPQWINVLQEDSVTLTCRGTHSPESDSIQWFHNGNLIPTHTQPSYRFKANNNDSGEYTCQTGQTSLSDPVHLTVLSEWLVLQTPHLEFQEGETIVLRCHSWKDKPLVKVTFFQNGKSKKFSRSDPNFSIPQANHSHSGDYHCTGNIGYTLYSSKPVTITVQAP
Procedure: Variants were screened for receptor affinity using Biacore™ technology, also referred to as Biacore herein, a surface plasmon resonance (SPR) based technology for studying biomolecular interactions in real time. SPR measurements were performed using a Biacore 3000 instrument (Biacore, Piscataway, N.J.). A protein A/G (Pierce Biotechnology) CM5 biosensor chip (Biacore) was generated using a standard primary amine coupling protocol. All measurements were performed using HBS-EP buffer (10 mM HEPES pH 7.4, 0.15 M NaCl, 3 mM EDTA, 0.005% vol/vol surfactant P20, Biacore). Antibodies at 20 nM or 50 nM in HBS-EP buffer were immobilized on the protein A/G surface and FcγRs were injected. After each cycle, the surface was regenerated by injecting glycine buffer (10 mM, pH 1.5). Data were processed by zeroing time and response before the injection of FcγR and by subtracting appropriate nonspecific signals (response of reference channel and injection of running buffer). Kinetic analyses were performed by global fitting of binding data with a 1:1 Langmuir binding model using BIAevaluation software (Biacore).

Fold vs WT IgG1 [fold] | Kd [nM] | Binder
11.6 | 126 | G236D/H268D (antibody, human IgG1, kappa, HuAM4G7 anti-CD19 IgG1 (m1) with these Fc substitutions, EU index; copies: 2 + 2) heavy: not shown light: DIVMTQSPATLSLSPGERATLSCRSSKSLQNVNGNTYLYWFQQKPGQSPQLLIYRMSNLNSGVPDRFSGSGSGTEFTLTISSLEPEDFAVYYCMQHLEYPITFGAGTKLEIKRTVAAPSVFIFPPSDEQLKSGTASVVCLLNNFYPREAKVQWKVDNALQSGNSQESVTEQDSKDSTYSLSSTLTLSKADYEKHKVYACEVTHQGLSSPVTKSFNRGEC
6.89 | 213 | S267D/A327D (antibody, human IgG1, kappa, HuAM4G7 anti-CD19 IgG1 (m1) with these Fc substitutions, EU index; copies: 2 + 2) heavy: not shown light: DIVMTQSPATLSLSPGERATLSCRSSKSLQNVNGNTYLYWFQQKPGQSPQLLIYRMSNLNSGVPDRFSGSGSGTEFTLTISSLEPEDFAVYYCMQHLEYPITFGAGTKLEIKRTVAAPSVFIFPPSDEQLKSGTASVVCLLNNFYPREAKVQWKVDNALQSGNSQESVTEQDSKDSTYSLSSTLTLSKADYEKHKVYACEVTHQGLSSPVTKSFNRGEC
5.89 | 249 | L234E/H268D (antibody, human IgG1, kappa, HuAM4G7 anti-CD19 IgG1 (m1) with these Fc substitutions, EU index; copies: 2 + 2) heavy: not shown light: DIVMTQSPATLSLSPGERATLSCRSSKSLQNVNGNTYLYWFQQKPGQSPQLLIYRMSNLNSGVPDRFSGSGSGTEFTLTISSLEPEDFAVYYCMQHLEYPITFGAGTKLEIKRTVAAPSVFIFPPSDEQLKSGTASVVCLLNNFYPREAKVQWKVDNALQSGNSQESVTEQDSKDSTYSLSSTLTLSKADYEKHKVYACEVTHQGLSSPVTKSFNRGEC
17.8 | 82.6 | S267D/H268E (antibody, human IgG1, kappa, HuAM4G7 anti-CD19 IgG1 (m1) with these Fc substitutions, EU index; copies: 2 + 2) heavy: not shown light: DIVMTQSPATLSLSPGERATLSCRSSKSLQNVNGNTYLYWFQQKPGQSPQLLIYRMSNLNSGVPDRFSGSGSGTEFTLTISSLEPEDFAVYYCMQHLEYPITFGAGTKLEIKRTVAAPSVFIFPPSDEQLKSGTASVVCLLNNFYPREAKVQWKVDNALQSGNSQESVTEQDSKDSTYSLSSTLTLSKADYEKHKVYACEVTHQGLSSPVTKSFNRGEC
15.9 | 92.2 | L235Y/S267D (antibody, human IgG1, kappa, HuAM4G7 anti-CD19 IgG1 (m1) with these Fc substitutions, EU index; copies: 2 + 2) heavy: not shown light: DIVMTQSPATLSLSPGERATLSCRSSKSLQNVNGNTYLYWFQQKPGQSPQLLIYRMSNLNSGVPDRFSGSGSGTEFTLTISSLEPEDFAVYYCMQHLEYPITFGAGTKLEIKRTVAAPSVFIFPPSDEQLKSGTASVVCLLNNFYPREAKVQWKVDNALQSGNSQESVTEQDSKDSTYSLSSTLTLSKADYEKHKVYACEVTHQGLSSPVTKSFNRGEC
33.3 | 44 | S267E/H268D (antibody, human IgG1, kappa, HuAM4G7 anti-CD19 IgG1 (m1) with these Fc substitutions, EU index; copies: 2 + 2) heavy: not shown light: DIVMTQSPATLSLSPGERATLSCRSSKSLQNVNGNTYLYWFQQKPGQSPQLLIYRMSNLNSGVPDRFSGSGSGTEFTLTISSLEPEDFAVYYCMQHLEYPITFGAGTKLEIKRTVAAPSVFIFPPSDEQLKSGTASVVCLLNNFYPREAKVQWKVDNALQSGNSQESVTEQDSKDSTYSLSSTLTLSKADYEKHKVYACEVTHQGLSSPVTKSFNRGEC
 | 37800 | L235S/S267E (antibody, human IgG1, kappa, HuAM4G7 anti-CD19 IgG1 (m1) with these Fc substitutions, EU index; copies: 2 + 2) heavy: not shown light: DIVMTQSPATLSLSPGERATLSCRSSKSLQNVNGNTYLYWFQQKPGQSPQLLIYRMSNLNSGVPDRFSGSGSGTEFTLTISSLEPEDFAVYYCMQHLEYPITFGAGTKLEIKRTVAAPSVFIFPPSDEQLKSGTASVVCLLNNFYPREAKVQWKVDNALQSGNSQESVTEQDSKDSTYSLSSTLTLSKADYEKHKVYACEVTHQGLSSPVTKSFNRGEC
12.1 | 121 | S267D/A327E (antibody, human IgG1, kappa, HuAM4G7 anti-CD19 IgG1 (m1) with these Fc substitutions, EU index; copies: 2 + 2) heavy: not shown light: DIVMTQSPATLSLSPGERATLSCRSSKSLQNVNGNTYLYWFQQKPGQSPQLLIYRMSNLNSGVPDRFSGSGSGTEFTLTISSLEPEDFAVYYCMQHLEYPITFGAGTKLEIKRTVAAPSVFIFPPSDEQLKSGTASVVCLLNNFYPREAKVQWKVDNALQSGNSQESVTEQDSKDSTYSLSSTLTLSKADYEKHKVYACEVTHQGLSSPVTKSFNRGEC
